Results taken from patent US20220281969A1 (ANTLERA THERAPEUTICS, published 2022).

Assays:
[1] = target: T1, recombinant mouse LRP5-His chimera (mouse, UniProt Q91VN0 31-1383); experiment: single-point ELISA, IgG1 on coated antigen
T1 construct: extracellular domain; not shown: His tag
T1 sequence (looked up): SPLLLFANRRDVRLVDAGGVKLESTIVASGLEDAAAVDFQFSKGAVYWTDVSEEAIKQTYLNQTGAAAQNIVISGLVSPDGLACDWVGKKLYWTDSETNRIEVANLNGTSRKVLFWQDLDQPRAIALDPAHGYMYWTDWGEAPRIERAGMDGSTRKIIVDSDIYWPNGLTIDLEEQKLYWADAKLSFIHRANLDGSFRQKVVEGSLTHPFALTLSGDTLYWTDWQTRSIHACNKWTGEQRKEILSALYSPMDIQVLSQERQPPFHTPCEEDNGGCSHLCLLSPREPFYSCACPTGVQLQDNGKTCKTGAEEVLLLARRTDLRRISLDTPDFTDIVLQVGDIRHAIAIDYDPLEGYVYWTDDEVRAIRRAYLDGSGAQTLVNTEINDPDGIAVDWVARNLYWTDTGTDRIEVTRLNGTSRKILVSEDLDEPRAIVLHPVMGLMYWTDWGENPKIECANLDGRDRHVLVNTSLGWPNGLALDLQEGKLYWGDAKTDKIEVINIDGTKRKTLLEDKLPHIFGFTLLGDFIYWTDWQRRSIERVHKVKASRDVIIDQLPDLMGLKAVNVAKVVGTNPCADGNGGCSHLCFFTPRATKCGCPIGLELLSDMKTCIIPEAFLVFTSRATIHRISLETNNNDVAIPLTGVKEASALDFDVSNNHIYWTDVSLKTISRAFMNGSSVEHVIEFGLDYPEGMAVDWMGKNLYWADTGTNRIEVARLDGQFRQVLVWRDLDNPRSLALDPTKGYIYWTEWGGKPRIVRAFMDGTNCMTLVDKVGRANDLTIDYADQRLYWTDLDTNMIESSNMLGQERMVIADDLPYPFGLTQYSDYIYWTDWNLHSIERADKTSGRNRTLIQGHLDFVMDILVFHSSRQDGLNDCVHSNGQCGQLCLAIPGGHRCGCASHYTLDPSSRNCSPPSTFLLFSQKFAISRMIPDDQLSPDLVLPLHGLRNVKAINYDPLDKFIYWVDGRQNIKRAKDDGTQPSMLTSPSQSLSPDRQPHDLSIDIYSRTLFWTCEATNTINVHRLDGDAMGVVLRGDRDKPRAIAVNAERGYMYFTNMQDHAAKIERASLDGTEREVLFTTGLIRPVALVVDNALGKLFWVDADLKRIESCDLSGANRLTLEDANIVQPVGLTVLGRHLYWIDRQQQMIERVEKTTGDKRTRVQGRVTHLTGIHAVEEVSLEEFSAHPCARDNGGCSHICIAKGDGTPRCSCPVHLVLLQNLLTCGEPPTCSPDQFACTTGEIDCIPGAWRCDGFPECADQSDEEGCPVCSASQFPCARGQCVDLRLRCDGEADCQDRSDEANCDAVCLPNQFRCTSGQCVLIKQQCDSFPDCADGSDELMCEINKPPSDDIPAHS
Protocol: (§1) FIGS. 1a and 1b show LRP six antibodies. (A) The amino acid sequences of the complementarity determining regions (CDR) of the heavy (H) and the light (L) chains are presented. The antibodies were grouped into unique epitopes as determined by competitive ELISAs. (B) Single-point ELISAs were performed on 96-well Maxisorb immune plates coated with the […] of mouse LRP5, mouse LRP6 and human LRP6 chimeras. The plates were incubated with the purified Fab or IgG1 at the concentrations indicated followed by incubation with horseradish peroxidase (HRP)-conjugated anti-kappa antibody. The wells were washed eight times followed by incubation with 3,3′,5,5′-tetramethylbenzidine/H₂O₂ peroxidase (TMB) substrate for 5-10 min. The reaction was stopped by adding one M H₃PO₄ and the absorbance was measured spectrometrically at 450 nm in a microtiter plate reader.
(§2) The full length IgG1s were purified and a single-point ELISA was done to determine the specificity of the antibodies. […] A multipoint competitive ELISA was used to determine the relative affinities of the antibodies to the recombinant antigen.

[2] = target: T2, recombinant mouse LRP6His chimera (mouse, UniProt O88572 20-1370); experiment: single-point ELISA, IgG1 on coated antigen
T2 construct: extracellular domain; not shown: His tag
T2 sequence (looked up): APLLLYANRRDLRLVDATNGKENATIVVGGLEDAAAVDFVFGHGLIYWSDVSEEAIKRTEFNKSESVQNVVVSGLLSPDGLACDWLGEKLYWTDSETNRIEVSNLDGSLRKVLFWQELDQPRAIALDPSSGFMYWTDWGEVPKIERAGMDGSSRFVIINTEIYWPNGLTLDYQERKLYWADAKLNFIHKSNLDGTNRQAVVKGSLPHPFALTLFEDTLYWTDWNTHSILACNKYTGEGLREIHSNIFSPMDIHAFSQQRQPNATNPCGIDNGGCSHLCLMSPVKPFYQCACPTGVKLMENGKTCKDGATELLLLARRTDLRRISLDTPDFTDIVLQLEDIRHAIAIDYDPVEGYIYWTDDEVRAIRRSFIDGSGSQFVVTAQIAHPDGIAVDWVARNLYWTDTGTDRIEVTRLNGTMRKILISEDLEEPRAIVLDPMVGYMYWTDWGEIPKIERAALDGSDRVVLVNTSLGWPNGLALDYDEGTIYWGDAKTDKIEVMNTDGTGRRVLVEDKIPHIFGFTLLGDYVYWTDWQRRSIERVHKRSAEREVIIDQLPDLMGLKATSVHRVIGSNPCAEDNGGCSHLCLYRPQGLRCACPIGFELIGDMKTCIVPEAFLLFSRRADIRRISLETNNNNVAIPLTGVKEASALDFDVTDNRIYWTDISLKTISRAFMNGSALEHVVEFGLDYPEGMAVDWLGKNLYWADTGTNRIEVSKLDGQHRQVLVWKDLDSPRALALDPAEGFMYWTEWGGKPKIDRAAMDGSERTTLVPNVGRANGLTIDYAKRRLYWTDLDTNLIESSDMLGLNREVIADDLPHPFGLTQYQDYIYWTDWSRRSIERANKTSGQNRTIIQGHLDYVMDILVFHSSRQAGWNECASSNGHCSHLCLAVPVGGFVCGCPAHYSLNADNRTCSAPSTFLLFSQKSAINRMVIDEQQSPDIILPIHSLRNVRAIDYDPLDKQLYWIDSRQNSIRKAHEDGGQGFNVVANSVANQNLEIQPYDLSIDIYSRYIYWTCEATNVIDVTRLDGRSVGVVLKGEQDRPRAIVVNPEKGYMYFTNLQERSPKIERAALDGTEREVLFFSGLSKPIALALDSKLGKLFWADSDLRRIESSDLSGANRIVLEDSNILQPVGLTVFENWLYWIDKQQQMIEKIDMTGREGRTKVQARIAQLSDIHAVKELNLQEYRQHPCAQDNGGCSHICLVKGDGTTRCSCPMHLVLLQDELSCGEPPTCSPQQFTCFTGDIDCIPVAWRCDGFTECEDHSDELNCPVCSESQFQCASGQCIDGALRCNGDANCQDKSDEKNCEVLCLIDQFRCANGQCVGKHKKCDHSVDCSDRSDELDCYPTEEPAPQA
Protocol: as §1, §2

B1: LRP6-E3 IgG1 antibody (antibody, V domains shown)
VH: EVQLVESGGGLVQPGGSLRLSCAASGFNLYYYSMHWVRQAPGKGLEWVASIYSSYGYTYYADSVKGRFTISADTSKNTAYLQMNSLRAEDTAVYYCARYAGYYYYPWAYYGWPFSGLDYWGQGTLVTVSS
VL: DIQMTQSPSSLSASVGDRVTITCRASQSVSSAVAWYQQKPGKAPKLLIYSASSLYSGVPSRFSGSRSGTDFTLTISSLQPEDFATYYCQQAGSAPYHLITFGQGTKVEIKR
notes: Tested as purified full length IgG1
binding result [1]: no binding
binding result [2]: no binding
